Drawing on article PMC11417369, “DNA sequence and chromatin differentiate sequence-specific transcription factor binding in the human malaria parasite Plasmodium falciparum”, this text covers binding signal for 17 molecules.

The labels stand for the following.
B1: CACACA_site4748 (dsDNA)
DNA 1: GCCTTTTAGTATTTCACACACGTAAATGAGTATATC
DNA 2: GATATACTCATTTACGTGTGTGAAATACTAAAAGGC
B2: CACACA_site6811 (dsDNA)
DNA 1: CATATAAAGATATGAACACACAAAAAGAATATTTCC
DNA 2: GGAAATATTCTTTTTGTGTGTTCATATCTTTATATG
B3: CACACA_site478 (dsDNA)
DNA 1: AAAAAAAAAAAAAAAACACACAAATCATAAATAAAT
DNA 2: ATTTATTTATGATTTGTGTGTTTTTTTTTTTTTTTT
B4: CACACA_site76 (dsDNA)
DNA 1: GGCAGCAATTTAGTTACACACATATATAGGTATACA
DNA 2: TGTATACCTATATATGTGTGTAACTAAATTGCTGCC
B5: CACACA_site6075 (dsDNA)
DNA 1: AATAAATAAGCACATACACACATACATACATACATA
DNA 2: TATGTATGTATGTATGTGTGTATGTGCTTATTTATT
B6: CACACA_site4181 (dsDNA)
DNA 1: GGATATATTTTATGTACACACACATATAAGGGATTA
DNA 2: TAATCCCTTATATGTGTGTGTACATAAAATATATCC
B7: CACACA_site4200 (dsDNA)
DNA 1: TGTCCCCCTTTCTATGCACACTTTAAATTATTCAAA
DNA 2: TTTGAATAATTTAAAGTGTGCATAGAAAGGGGGACA
B8: CACACA_site4569 (dsDNA)
DNA 1: TTGCCCATTTCATTAACACACAAATGTTTATATTCT
DNA 2: AGAATATAAACATTTGTGTGTTAATGAAATGGGCAA
B9: CACACA_site2584 (dsDNA)
DNA 1: ATTGCTTTTCTTTTTGCACACTTATGCATATATATA
DNA 2: TATATATATGCATAAGTGTGCAAAAAGAAAAGCAAT
B10: CACACA_site8720 (dsDNA)
DNA 1: TATGTATTAAATTTTACACACATGATTCTCTATATG
DNA 2: CATATAGAGAATCATGTGTGTAAAATTTAATACATA
B11: CACACA_site4699 (dsDNA)
DNA 1: AAACAGAAGACATATACACACATACAAAAAAGTGCA
DNA 2: TGCACTTTTTTGTATGTGTGTATATGTCTTCTGTTT
B12: CACACA_site5336 (dsDNA)
DNA 1: TATAATAATAAAAACACACACGTTGATTGTATTAGC
DNA 2: GCTAATACAATCAACGTGTGTGTTTTTATTATTATA
B13: CACACA_site5088 (dsDNA)
DNA 1: CCAACATAGAGGGGCACACACATATATACCTAAAAA
DNA 2: TTTTTAGGTATATATGTGTGTGCCCCTCTATGTTGG
B14: CACACA_site6753 (dsDNA)
DNA 1: GAAGTAATTTCATATACACACATATACATACATACA
DNA 2: TGTATGTATGTATATGTGTGTATATGAAATTACTTC
B15: CACACA_site2783 (dsDNA)
DNA 1: TATGAAAGAAATAGTACACACATAAACATTTGTAAA
DNA 2: TTTACAAATGTTTATGTGTGTACTATTTCTTTCATA
B16: CACACA_site1373 (dsDNA)
DNA 1: TACAAAATATATATGACACACATAAAAAAAAGTATA
DNA 2: TATACTTTTTTTTATGTGTGTCATATATATTTTGTA
B17: CACACA_site8696 (dsDNA)
DNA 1: TGGGAAAAAATATATGCACACCCCCCAAAAAAAAAA
DNA 2: TTTTTTTTTTGGGGGGTGTGCATATATTTTTTCCCA

This series deals with T1, PF3D7_0420300 D1 (Plasmodium falciparum, UniProt Q8I1N6 1956-2015).
T1 sequence: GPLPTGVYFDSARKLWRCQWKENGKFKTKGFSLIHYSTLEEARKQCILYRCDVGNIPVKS
Briefly: gcPBM; about 25 ug protein; PBS, 1% milk, 0.2 mg/ml BSA, salmon testes DNA, 0.03% Triton X-100. As to conditions: tags: N-terminal GST (pGEX-4T-1), kept; label: surface-attached array probe.
Take B1: the binding signal is 9.63 ln median PBM intensity, better of two orientations. Then B2, with 9.72 ln median PBM intensity, better of two orientations.

B3: the binding signal was 9.63 ln median PBM intensity, better of two orientations. Then B4, with 9.67 ln median PBM intensity, better of two orientations. Then B5, with 9.71 ln median PBM intensity, better of two orientations. For the molecule B6, the binding signal is 9.74 ln median PBM intensity, better of two orientations. For B7, the binding signal was 9.68 ln median PBM intensity, better of two orientations. Regarding B8, the binding signal was 9.7 ln median PBM intensity, better of two orientations. Next, B9: 9.72 ln median PBM intensity, better of two orientations; B10: 9.65 ln median PBM intensity, better of two orientations; B11: 9.75 ln median PBM intensity, better of two orientations.

In the case of B12, the binding signal was 9.66 ln median PBM intensity, better of two orientations.

As for B13, the binding signal is 9.64 ln median PBM intensity, better of two orientations. Regarding B14, the binding signal is 9.62 ln median PBM intensity, better of two orientations. Turning to B15, the binding signal was 9.73 ln median PBM intensity, better of two orientations. In the case of B16, the binding signal is 9.69 ln median PBM intensity, better of two orientations. As to B17, the binding signal is 10.7 ln median PBM intensity, better of two orientations.
